Patent US20160002331A1 (Pfizer, published 2016)
“And” between values parts separate entries of the source, which are not always exact repeats. Equal entries are not always repeated. Where two headings read alike, the source gives them in different places.

Tests used:
[1] = target: T1, full-length human Notch1 expressed on the cell surface (human, UniProt P46531 19-2555); test: cell-based or functional assay
[2] = target: T2, Notch1 receptor with L1575P mutation (HPB-ALL cells) (UniProt P46531 19-2555, limits assumed); test: cell-based or functional assay
[3] = target: Notch1 receptor with a 12 amino acid insertion at position 1595 (CCRF-CEM cells) (UniProt P46531 19-2555); test: cell-based or functional assay
[4] = target: T2, Notch1 receptor with L1575P mutation …; test: cell-based or functional assay; remark: listed apart in the source
[5] = target: T1, full-length human Notch1 expressed on …; test: cell-based or functional assay; remark: listed apart in the source
[6] = target: T3, full-length mouse Notch1 expressed on the cell surface of U-2 OS cells (mouse, UniProt Q01705 19-2531); test: cell-based or functional assay
[7] = target: T4, human Notch1 NRR_Avi_His recombinant protein (human, UniProt P46531 1434-1737); test: SPR (Biacore T100), antibody captured by anti-human IgG-Fc, NRR_Avi_His as analyte, 1:1 Langmuir model
T4 construct: Secreted from CHO-PACE cells; cleaved at S1 into an N-terminal ~26 kDa half (LNR-A, B, C, HD1) and a C-terminal ~12 kDa half (HD2 and tag) that stay associated non-covalently; written here as one chain; also called recombinant human Notch1 NRR; human Notch1 NRR immunogen
T4 sequence: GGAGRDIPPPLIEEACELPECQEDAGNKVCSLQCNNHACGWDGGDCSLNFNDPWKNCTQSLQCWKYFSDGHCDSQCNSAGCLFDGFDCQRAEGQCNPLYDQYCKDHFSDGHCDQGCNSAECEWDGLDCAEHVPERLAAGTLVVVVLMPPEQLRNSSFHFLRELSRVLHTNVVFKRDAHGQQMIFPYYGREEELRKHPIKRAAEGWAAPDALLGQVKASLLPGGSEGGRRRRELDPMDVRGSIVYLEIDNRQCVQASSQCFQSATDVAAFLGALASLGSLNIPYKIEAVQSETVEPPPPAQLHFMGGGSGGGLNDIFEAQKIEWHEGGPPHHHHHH
Method: (§1) The kinetic constants of the anti-Notch1 NRR interactions were determined by surface plasmon resonance (Biacore® T100, Biacore Inc., Piscataway, N.J.). Flow cells of a CM5 chip were immobilized with approximately 10,000 Resonance Unit (RU) of anti-human IgG-Fc (Biacore®) in 10 mM Glycine, pH 5.0 at 10 μl/min for 600 seconds. […] Association of four concentrations of human Notch1 NRR_Avi_His recombinant protein (from 3.7-100 nM) and a zero concentration (running buffer) at 100 μl/min were recorded for 3 minutes in TBS with 1 mM CaCl₂. Dissociation of the complexes was measured for 10 minutes. The surface of the chip was regenerated by injecting 3M MgCl₂ with 3 mM EGTA for 60 seconds at 10 μl/min. Curves obtained after subtraction of the reference and buffer signals were fitted to a 1:1 Langmuir binding model with Biacore® T100 Evaluation Software (Biacore®).

[8] = target: T1, full-length human Notch1 expressed on …; test: cell-based or functional assay; remark: listed apart in the source
[9] = target: T1, full-length human Notch1 expressed on …; test: cell-based or functional assay; remark: listed apart in the source
[10] = target: T3, full-length mouse Notch1 expressed on …; test: cell-based or functional assay; remark: listed apart in the source
[11] = target: T3, full-length mouse Notch1 expressed on …; test: cell-based ELISA, U-2 OS cells expressing full-length mouse Notch1
Method: (§2) Supernatants from clones displaying positive binding to immunogens in recombinant Notch1 NRR based ELISAs described above were then screened for cell surface Notch1 binding in a cell-based ELISA. U-2 OS cells stably overexpressing human or mouse full length Notch1 protein on cell surface were plated at 50,000 cells/well in 96 well plates (white opaque, BD/VWR) the day before ELISA assay. On the day of the ELISA, culture media were removed from wells and serially diluted (1:3 in blocking buffer) antibody solutions or hybridoma culture supernatants were applied to the plate. Plates were incubated at room temperature for 2 hours before being washed with PBS-Mg/Ca. HRP-conjugated secondary antibody was then applied and incubated with cells for 1 hour as described above for recombinant protein ELISA. Plates were washed with PBS-Mg/Ca before being developed with Pico-Chemiluminescent developing kit (Thermal Scientific), and chemiluminescence measurements were performed per manufacturer's instructions. Data plotting and analyses were performed with Microsoft Excel and Graphpad-Prizm software.

[12] = target: T1, full-length human Notch1 expressed on …; test: cell-based ELISA, U-2 OS cells expressing full-length human Notch1
Method: as §2

[13] = target: T1, full-length human Notch1 expressed on …; test: competition ELISA on U-2 OS cells expressing full-length human Notch1; competitor 0.8 nM biotinylated rat 351
Method: (§3) In a similar manner as described for recombinant protein or cell based ELISAs, 96 well cell culture plates were either coated with Notch1 NRR-Avi_His protein (hi-bound co-Star plates), or seeded with full length Notch1 expressing U-2 OS cells (cell culture plate, Co-star), respectively.
(§4) After incubation for 2 hours, the plates were washed, as described above, and HRP-conjugated streptavidin (Southern Biotech) diluted 1:5000 in blocking buffer was applied. Incubation with streptavidin was allowed for 30 min before the plates were washed again and developed with TMB solution for 10 minutes. Developing reaction was stopped by adding 0.18M H₂SO₄ and absorbance at 450 nm was measured. Data plotting and analyses were performed with Microsoft Excel and Graphpad-Prizm software.

[14] = target: T4, human Notch1 NRR_Avi_His recombinant …; test: SPR (Biacore T100), ratio of KD to that of rat 351
[15] = target: T1, full-length human Notch1 expressed on …; test: cell-based or functional assay; remark: listed apart in the source
[16] = target: T4, human Notch1 NRR_Avi_His recombinant …; test: competition ELISA on coated human Notch1 NRR_Avi_His; competitor 0.8 nM biotinylated rat 438
Method: as §3, §4

[17] = target: T4, human Notch1 NRR_Avi_His recombinant …; test: SPR (Biacore T100), ratio of KD to that of rat 438-hIgG1
Method: as §1

[18] = target: T1, full-length human Notch1 expressed on …; test: competition ELISA on U-2 OS cells expressing full-length human Notch1; competitor 0.8 nM biotinylated rat 438
Method: as §3, §4

[19] = target: T1, full-length human Notch1 expressed on …; test: cell-based or functional assay; remark: listed apart in the source
[20] = target: T3, full-length mouse Notch1 expressed on …; test: cell-based or functional assay; remark: listed apart in the source

T3 sequence (Q01705 19-2531): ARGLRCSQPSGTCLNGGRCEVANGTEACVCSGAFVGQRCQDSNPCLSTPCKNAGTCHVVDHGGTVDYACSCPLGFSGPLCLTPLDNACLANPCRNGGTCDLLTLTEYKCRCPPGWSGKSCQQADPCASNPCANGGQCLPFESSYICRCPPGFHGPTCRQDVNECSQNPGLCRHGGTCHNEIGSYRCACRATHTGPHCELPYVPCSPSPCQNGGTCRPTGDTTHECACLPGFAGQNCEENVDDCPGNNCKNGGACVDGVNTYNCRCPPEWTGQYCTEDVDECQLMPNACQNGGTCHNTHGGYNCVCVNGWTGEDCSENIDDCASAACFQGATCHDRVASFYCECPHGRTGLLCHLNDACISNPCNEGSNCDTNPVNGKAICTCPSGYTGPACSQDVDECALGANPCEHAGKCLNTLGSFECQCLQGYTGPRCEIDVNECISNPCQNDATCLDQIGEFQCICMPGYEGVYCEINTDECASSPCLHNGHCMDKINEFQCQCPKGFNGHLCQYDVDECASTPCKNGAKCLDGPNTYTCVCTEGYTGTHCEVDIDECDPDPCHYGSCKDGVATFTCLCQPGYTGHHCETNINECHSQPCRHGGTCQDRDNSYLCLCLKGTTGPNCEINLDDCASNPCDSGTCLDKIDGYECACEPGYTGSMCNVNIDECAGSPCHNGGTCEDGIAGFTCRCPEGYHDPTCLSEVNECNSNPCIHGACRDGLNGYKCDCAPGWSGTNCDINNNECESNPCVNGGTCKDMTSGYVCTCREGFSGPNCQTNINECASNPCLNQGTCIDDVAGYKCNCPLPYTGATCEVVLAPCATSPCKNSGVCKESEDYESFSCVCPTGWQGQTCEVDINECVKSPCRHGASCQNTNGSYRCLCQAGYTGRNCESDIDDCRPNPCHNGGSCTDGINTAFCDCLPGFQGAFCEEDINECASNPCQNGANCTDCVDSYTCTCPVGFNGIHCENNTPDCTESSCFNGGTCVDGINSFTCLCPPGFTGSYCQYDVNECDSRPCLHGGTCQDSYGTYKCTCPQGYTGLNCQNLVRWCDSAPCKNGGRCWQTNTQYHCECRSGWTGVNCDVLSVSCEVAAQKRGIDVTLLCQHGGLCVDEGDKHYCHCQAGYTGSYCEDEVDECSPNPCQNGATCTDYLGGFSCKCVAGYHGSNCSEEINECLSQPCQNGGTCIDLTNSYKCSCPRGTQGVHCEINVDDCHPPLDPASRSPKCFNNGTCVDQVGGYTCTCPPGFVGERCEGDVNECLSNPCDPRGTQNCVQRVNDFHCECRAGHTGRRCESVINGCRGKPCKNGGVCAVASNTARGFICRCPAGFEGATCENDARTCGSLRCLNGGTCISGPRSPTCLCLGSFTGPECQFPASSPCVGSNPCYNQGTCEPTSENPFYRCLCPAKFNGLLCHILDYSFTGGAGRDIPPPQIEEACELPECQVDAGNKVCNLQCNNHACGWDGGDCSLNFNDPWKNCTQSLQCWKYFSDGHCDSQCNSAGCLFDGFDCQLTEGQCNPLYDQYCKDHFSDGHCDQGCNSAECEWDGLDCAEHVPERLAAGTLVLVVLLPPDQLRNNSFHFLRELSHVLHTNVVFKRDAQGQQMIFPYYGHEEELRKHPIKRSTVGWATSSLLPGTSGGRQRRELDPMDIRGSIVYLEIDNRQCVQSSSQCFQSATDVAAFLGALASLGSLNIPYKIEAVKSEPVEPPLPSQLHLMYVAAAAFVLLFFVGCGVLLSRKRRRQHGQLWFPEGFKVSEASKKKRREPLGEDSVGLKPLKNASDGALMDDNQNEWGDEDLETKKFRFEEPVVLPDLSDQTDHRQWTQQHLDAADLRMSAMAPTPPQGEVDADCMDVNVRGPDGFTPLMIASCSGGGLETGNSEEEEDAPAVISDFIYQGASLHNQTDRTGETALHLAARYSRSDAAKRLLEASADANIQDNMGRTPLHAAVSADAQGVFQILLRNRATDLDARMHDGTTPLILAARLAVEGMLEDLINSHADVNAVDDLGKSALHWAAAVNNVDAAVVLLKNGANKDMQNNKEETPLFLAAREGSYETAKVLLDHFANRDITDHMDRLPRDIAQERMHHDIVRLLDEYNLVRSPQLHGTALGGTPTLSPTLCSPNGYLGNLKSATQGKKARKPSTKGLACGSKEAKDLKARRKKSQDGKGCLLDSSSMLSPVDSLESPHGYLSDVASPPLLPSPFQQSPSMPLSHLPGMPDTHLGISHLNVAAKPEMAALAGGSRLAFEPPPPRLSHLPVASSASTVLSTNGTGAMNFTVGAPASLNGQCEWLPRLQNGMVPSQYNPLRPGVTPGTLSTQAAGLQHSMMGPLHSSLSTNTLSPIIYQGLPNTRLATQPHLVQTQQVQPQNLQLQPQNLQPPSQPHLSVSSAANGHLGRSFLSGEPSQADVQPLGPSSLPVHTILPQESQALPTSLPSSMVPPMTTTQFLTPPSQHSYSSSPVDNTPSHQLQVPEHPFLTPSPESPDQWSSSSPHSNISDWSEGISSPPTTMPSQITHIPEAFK
T1 sequence (P46531 19-2555): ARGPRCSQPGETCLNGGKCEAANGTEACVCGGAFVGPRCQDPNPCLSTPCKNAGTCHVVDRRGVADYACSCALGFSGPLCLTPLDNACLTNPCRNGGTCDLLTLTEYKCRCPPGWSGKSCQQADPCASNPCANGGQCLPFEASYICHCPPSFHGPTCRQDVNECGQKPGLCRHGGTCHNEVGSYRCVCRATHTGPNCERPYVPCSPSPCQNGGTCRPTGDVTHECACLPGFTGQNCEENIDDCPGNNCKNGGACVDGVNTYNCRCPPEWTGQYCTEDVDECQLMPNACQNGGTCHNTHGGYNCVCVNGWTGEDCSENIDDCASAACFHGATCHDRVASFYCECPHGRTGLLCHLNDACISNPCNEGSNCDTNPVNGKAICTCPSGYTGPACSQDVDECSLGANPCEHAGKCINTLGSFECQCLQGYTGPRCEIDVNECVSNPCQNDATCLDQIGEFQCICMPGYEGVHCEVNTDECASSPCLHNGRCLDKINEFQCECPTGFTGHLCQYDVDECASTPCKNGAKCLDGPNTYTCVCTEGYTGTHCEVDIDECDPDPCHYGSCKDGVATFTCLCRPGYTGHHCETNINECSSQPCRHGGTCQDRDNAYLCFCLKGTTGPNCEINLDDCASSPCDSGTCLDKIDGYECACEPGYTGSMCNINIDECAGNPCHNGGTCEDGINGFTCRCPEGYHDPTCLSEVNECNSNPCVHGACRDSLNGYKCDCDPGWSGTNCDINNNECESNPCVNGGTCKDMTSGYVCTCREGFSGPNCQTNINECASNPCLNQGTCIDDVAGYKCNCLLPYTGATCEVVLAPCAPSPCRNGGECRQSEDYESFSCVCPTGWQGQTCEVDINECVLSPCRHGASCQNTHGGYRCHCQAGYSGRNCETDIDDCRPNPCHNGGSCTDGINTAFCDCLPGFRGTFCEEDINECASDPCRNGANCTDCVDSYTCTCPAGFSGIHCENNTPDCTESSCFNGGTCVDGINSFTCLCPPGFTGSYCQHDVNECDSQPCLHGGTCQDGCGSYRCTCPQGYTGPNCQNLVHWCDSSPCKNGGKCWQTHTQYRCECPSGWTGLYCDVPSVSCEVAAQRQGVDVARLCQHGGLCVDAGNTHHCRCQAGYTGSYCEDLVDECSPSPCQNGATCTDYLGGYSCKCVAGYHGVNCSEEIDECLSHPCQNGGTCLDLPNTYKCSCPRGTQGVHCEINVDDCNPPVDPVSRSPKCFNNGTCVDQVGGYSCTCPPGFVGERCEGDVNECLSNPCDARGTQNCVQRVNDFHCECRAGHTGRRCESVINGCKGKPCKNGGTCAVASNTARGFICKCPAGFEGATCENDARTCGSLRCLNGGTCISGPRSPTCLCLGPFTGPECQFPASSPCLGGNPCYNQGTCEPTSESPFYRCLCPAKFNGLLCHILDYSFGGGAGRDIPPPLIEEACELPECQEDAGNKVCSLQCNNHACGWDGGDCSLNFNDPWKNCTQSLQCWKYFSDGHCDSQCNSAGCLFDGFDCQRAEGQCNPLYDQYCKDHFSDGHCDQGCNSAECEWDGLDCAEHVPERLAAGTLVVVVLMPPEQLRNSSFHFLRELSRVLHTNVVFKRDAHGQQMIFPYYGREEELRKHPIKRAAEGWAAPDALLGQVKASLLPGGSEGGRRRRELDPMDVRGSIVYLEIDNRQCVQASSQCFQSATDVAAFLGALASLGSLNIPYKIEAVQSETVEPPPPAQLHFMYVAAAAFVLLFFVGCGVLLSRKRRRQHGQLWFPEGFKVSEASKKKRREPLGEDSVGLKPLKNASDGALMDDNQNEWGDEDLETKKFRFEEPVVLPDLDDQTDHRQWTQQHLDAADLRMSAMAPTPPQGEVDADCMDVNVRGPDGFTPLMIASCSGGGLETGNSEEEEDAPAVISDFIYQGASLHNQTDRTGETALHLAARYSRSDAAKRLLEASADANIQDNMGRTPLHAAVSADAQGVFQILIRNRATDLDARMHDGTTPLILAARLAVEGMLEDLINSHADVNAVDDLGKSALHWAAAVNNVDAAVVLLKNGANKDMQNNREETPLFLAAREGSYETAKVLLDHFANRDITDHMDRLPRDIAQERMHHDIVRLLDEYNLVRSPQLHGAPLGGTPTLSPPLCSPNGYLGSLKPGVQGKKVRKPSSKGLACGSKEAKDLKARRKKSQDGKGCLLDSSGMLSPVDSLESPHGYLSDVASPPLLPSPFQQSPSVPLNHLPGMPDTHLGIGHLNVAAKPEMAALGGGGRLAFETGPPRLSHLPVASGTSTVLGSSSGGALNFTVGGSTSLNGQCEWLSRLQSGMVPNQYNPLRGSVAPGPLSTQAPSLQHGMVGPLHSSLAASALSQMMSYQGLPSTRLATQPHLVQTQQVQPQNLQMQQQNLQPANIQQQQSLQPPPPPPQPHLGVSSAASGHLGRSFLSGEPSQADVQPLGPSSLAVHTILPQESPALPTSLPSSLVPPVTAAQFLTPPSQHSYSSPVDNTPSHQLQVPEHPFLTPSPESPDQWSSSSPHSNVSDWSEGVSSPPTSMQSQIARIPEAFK
T2 sequence (P46531 19-2555 L1593P limits assumed): as the sequence (P46531 19-2555) above, with L1575P counted along it

B1: rat 351-mIgG1 (antibody, V domains shown)
VH: EVQLVESGGGLVQPGRSLKVSCLASGFTFSHYGMNWIRQAPGKGLDWVASISRSGSYIRYVDTVKGRFTVSRDIAKNTLYLQMTSLRSEDTALYYCAREGQFGDYFEYWGQGVMVTVSS
VL: DIMLTQSPATLSVTPGERISLSCRASQKISTNLHWYQQKPNESPRILIKYASQTISGIPSRFSGSGSGTDFTLHINTVEPEDFSVYYCQQTNSWPLTFGSGTKLEIK
[1]
  Firefly/Renilla Luminescence, human Notch1 reporter cells + 5 mM EDTA, 0.01 µg/mL antibody: 304 Firefly/Renilla ratio
  Firefly/Renilla Luminescence, human Notch1 reporter cells + 5 mM EDTA, 0.1 µg/mL antibody: 202 Firefly/Renilla ratio
  Firefly/Renilla Luminescence, human Notch1 reporter cells + 5 mM EDTA, 1 µg/mL antibody: 84.8 Firefly/Renilla ratio
  Firefly/Renilla Luminescence, human Notch1 reporter cells + 5 mM EDTA, 10 µg/mL antibody: 62.1 Firefly/Renilla ratio
  Firefly/Renilla Luminescence, human Notch1 reporter cells + 5 mM EDTA, 30 µg/mL antibody: 57 Firefly/Renilla ratio
[2]
  Normalized Notch1^ICD level, HPB-ALL cells, 0.001 µg/ml antibody: 0.833 relative to untreated
  Normalized Notch1^ICD level, HPB-ALL cells, 0.01 µg/ml antibody: 0.886 relative to untreated
  Normalized Notch1^ICD level, HPB-ALL cells, 0.1 µg/ml antibody: 0.156 relative to untreated
  Normalized Notch1^ICD level, HPB-ALL cells, 1 µg/ml antibody: 0.075 relative to untreated
  Normalized Notch1^ICD level, HPB-ALL cells, 10 µg/ml antibody: 0.02 relative to untreated
[3]
  Normalized Notch1^ICD level, CCRF-CEM cells, 0.001 µg/ml antibody: 0.982 relative to untreated
  Normalized Notch1^ICD level, CCRF-CEM cells, 0.01 µg/ml antibody: 1.04 relative to untreated
  Normalized Notch1^ICD level, CCRF-CEM cells, 0.1 µg/ml antibody: 0.413 relative to untreated
  Normalized Notch1^ICD level, CCRF-CEM cells, 1 µg/ml antibody: 0.043 relative to untreated
  Normalized Notch1^ICD level, CCRF-CEM cells, 10 µg/ml antibody: 0.034 relative to untreated
[4]
  IC50, MTS viability assay of HPB-ALL leukemia cells: 1.27 nM
[5]
  Neutralization activity (Human RGA), IC50: 0.22 nM
[6]
  Neutralization activity (murine RGA), IC50: 0.42 nM

B2: parental rat 351 (antibody, V domains shown)
VH: B1 VH
VL: B1 VL
notes: Rat monoclonal IgG from a hybridoma
[7]
  Kd: 2.33 nM and 2.3 nM
  koff: 0.00102 s⁻¹
  kon: 439000 M⁻¹ s⁻¹
[8]
  Normalized Notch1^ICD level, CCD1076SK fibroblasts on DLL4, 0.001 µg/ml antibody: 0.826 relative to untreated
  Normalized Notch1^ICD level, CCD1076SK fibroblasts on DLL4, 0.01 µg/ml antibody: 0.848 relative to untreated
  Normalized Notch1^ICD level, CCD1076SK fibroblasts on DLL4, 0.1 µg/ml antibody: 0.554 relative to untreated
  Normalized Notch1^ICD level, CCD1076SK fibroblasts on DLL4, 1 µg/ml antibody: 0.393 relative to untreated
  Normalized Notch1^ICD level, CCD1076SK fibroblasts on DLL4, 10 µg/ml antibody: 0.302 relative to untreated
[9]
  Neutralization activity (Human RGA), IC50: 0.4 nM
[10]
  Neutralization activity (murine RGA), IC50: 0.3 nM
[11]
  EC50: 0.07 nM
[12]
  EC50: 0.1 nM
[13]
  EC50: 4.43 nM
[14]
  Fold difference from rat 351: 1 fold
[15]
  IC50, Notch1 signaling inhibition co-culture reporter assay: 0.19 nM
  Maximal Inhibition (%), Notch1 signaling inhibition co-culture reporter assay: 87.5%

B3: humanized 438 VH1.1/VL1.8 (antibody, human IgG1, kappa, V domains shown)
VH: EVQLVESGGGLVQPGGSLRLSCAASGFTFSSFAMAWVRQAPGKGLEWVASISYGGADTYYRDSVKGRFTISRDNAKNSLYLQMNSLRAEDTAVYYCAKDLPYYGYTPFVMDAWGQGTLVTVSS
VL: DIQMTQSPSSLSASVGDRVTITCRASQRINTDLHWYQQKPGKAPKVLIKFASQTISGVPSRFSGSGSGTDFTLTISSLQPEDFATYYCQQSNSWPYTFGQGTKLEIKR
notes: full chains (VH1.1)-hIgG1-3M and (VL1.8)-hkappa
[7]
  Kd: 2.1 nM
  koff: 0.000449 s⁻¹
  kon: 214000 M⁻¹ s⁻¹
[16]
  EC50: 1.2 nM
[17]
  Fold difference from rat 438: 0.48 fold
[11]
  EC50: 0.149 nM
[12]
  EC50: 0.203 nM
[18]
  EC50: 3.2 nM
[4]
  IC50, MTS viability assay of HPB-ALL leukemia cells: 2.26 nM
[19]
  IC50, human Notch1 reporter gene co-culture assay (DLL4-HEK293): 0.17 nM
[20]
  IC50, mouse Notch1 reporter gene co-culture assay (DLL4-HEK293): 0.46 nM

B4: humanized 351 VH1.0/VL1.4 (antibody, human IgG1, V domains shown)
VH: EVQLVESGGGLVQPGGSLRLSCAASGFTFSHYGMNWVRQAPGKGLEWVASISRSGSYIRYVDTVKGRFTISRDNAKNSLYLQMNSLRAEDTAVYYCAREGQFGDYFEYWGQGTLVTVSS
VL: DIQMTQSPSSLSASVGDRVTITCRASQKISTNLHWYQQKPGKAPKLLIKYASQTISGVPSRFSGSGSGTDFTLTISSLQPEDFATYYCQQTNSWPLTFGGGTKVEIK
[7]
  Kd: 4.88 nM and 4.9 nM
  koff: 0.00223 s⁻¹
  kon: 458000 M⁻¹ s⁻¹
[11]
  EC50: 0.07 nM
[12]
  EC50: 0.1 nM
[13]
  EC50: 2.11 nM
[14]
  Fold difference from rat 351: 2.1 fold
[5]
  Neutralization activity (Human RGA), IC50: 0.17 nM
[6]
  Neutralization activity (murine RGA), IC50: 0.49 nM
